# Reference: patent US20020103123A1, “Methods of modifying feeding behavior, compounds useful in such methods, and DNA encoding a hypothalamic atypical neuropeptide Y/peptide YY receptor (Y5)” (Synaptic Pharmaceutical Corporation, published 2002)
# Ends that are not written are not given here.
# T1: human hippocampal Y5 receptor (human)
# T1 chain: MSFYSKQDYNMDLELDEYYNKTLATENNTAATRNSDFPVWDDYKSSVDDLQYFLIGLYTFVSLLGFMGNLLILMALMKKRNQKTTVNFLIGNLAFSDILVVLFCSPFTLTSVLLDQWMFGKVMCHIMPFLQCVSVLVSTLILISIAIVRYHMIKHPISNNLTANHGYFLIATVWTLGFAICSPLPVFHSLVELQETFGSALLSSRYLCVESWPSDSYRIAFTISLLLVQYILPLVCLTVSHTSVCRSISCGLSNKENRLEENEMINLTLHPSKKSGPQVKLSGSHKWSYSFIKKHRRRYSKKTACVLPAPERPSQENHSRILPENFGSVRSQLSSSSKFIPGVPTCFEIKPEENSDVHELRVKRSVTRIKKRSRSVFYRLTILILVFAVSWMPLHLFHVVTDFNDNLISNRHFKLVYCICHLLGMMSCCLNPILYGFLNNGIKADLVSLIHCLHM
# T2: human Y2 receptor (human, UniProt P49146)
# T2 sequence: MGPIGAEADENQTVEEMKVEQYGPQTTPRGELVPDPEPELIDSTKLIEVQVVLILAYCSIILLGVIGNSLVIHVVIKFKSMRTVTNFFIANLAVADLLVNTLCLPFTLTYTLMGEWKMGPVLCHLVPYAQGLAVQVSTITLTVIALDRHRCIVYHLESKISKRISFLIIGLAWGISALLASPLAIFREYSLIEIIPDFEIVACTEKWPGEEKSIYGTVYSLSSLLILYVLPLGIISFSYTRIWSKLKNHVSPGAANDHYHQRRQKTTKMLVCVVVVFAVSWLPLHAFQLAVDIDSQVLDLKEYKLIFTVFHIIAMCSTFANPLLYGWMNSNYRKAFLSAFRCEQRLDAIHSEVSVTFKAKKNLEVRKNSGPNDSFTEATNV
# T3: rat hypothalamic Y5 receptor (rat)
# T3 chain: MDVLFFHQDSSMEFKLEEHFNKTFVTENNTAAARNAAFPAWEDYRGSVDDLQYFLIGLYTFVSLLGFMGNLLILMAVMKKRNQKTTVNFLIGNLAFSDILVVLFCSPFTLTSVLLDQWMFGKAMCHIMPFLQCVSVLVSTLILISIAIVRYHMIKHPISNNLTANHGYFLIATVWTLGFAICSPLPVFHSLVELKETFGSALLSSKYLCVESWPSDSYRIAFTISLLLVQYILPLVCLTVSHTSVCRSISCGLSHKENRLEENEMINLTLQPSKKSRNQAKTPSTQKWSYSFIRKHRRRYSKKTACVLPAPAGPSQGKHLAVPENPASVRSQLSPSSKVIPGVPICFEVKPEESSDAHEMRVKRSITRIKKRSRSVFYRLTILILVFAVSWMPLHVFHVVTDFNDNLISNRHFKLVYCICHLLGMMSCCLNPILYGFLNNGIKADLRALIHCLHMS
# T4: rat Y2 receptor (rat, UniProt Q9ERC0)
# T4 sequence: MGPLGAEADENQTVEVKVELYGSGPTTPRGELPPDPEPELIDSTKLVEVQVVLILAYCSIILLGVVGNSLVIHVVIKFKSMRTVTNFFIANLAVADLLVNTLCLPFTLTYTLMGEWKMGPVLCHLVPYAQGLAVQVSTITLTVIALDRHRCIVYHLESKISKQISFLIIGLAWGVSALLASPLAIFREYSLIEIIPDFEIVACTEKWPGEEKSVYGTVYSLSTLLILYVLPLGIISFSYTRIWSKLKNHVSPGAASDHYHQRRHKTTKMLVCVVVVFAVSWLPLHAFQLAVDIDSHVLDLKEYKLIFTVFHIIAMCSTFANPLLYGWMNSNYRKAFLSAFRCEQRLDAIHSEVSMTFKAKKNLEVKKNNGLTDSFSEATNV
# Biological target: T1, human hippocampal Y5 receptor
# Assay: 125I-PYY displacement, LM(tk-) membranes
row,Binder,Ki [nM]
1,APLEPVYPGDNATPEQMAQYAADLRRYINMLTRPRY [human PP],3
2,APLEPEYPGDNATPEQMAQYAAELRRYINMLTRPRY [bovine PP],7.9

# Biological target: T5, human Y1 receptor (human, UniProt P25929)
# Assay: 125I-PYY displacement, COS-7 membranes; tested only up to 100 nM
row,Binder,Ki [nM]
1,TPEQMAQYAADLRRYINMLTRPRY [human PP13-36],> 100

# Biological target: T2, human Y2 receptor
# Assay: as above
row,Binder,Ki [nM]
1,TPEQMAQYAADLRRYINMLTRPRY [human PP13-36],> 100

# Biological target: T6, human Y4 receptor (human, UniProt P50391)
# Assay: 125I-PYY displacement, COS-7 membranes
# Method: (§1) Peptides were tested at concentrations ranging from 0.001 nM to 1000 nM unless noted. IC₅₀ values corresponding to 50% displacement were determined by nonlinear regression analysis and converted to Kᵢ values according to the Cheng-Prusoff equation.
row,Binder,Ki [nM]
1,TPEQMAQYAADLRRYINMLTRPRY [human PP13-36],39
2,APLEPMYPGDYATHEQRAQYETQLRRYINTLTRPRY [rat PP],0.16

# Biological target: T5, human Y1 receptor
# Assay: 125I-PYY displacement, COS-7 membranes
# Method: as §1
row,Binder,Ki [nM]
1,HYINLITRQRY (ends and bridges not checked) [porcine NPY26-36],> 1000
2,APLEPMYPGDYATHEQRAQYETQLRRYINTLTRPRY [rat PP],450

# Biological target: T2, human Y2 receptor
# Assay: 125I-PYY displacement, COS-7 membranes
# Method: as §1
row,Binder,Ki [nM]
1,HYINLITRQRY (ends and bridges not checked) [porcine NPY26-36],380
2,APLEPMYPGDYATHEQRAQYETQLRRYINTLTRPRY [rat PP],> 1000

# Biological target: T3, rat hypothalamic Y5 receptor
# Assay: 125I-PYY displacement, COS-7 membranes
# Method: as §1
row,Binder,Ki [nM]
1,APLEPVYPGDNATPEQMAQYAADLRRYINMLTRPRY [human PP],5
2,APLEPMYPGDYATHEQRAQYETQLRRYINTLTRPRY [rat PP],180

# Biological target: T1, human hippocampal Y5 receptor
# Assay: 125I-PYY3-36 displacement, LM(tk-) membranes
# Method: (§2) Peptides were tested at concentrations ranging from 0.001 nM to 1000 nM. IC₅₀ values corresponding to 50% displacement were determined by nonlinear regression analysis and converted to Kᵢ values according to the Cheng-Prusoff equation.
row,Binder,Ki [nM]
1,DLARYYSALRHYINLITRQRY (ends and bridges not checked) [porcine NPY16-36],180
2,APLEPEYPGDNATPEQMAQYAAELRRYINMLTRPRY [bovine PP],5
3,PLEPVY [human PP31-36],41000
4,APLEPMYPGDYATHEQRAQYETQLRRYINTLTRPRY [rat PP],130

# Biological target: T1, human hippocampal Y5 receptor
# Assay: 125I-PYY displacement, COS-7 membranes
# Method: as §2
row,Binder,Ki [nM]
1,ARYYSALRHYINLITRQRY (ends and bridges not checked) [porcine NPY18-36],> 470
2,DLARYYSALRHYINLITRQRY (ends and bridges not checked) [porcine NPY16-36],300
3,APLEPEYPGDNATPEQMAQYAAELRRYINMLTRPRY [bovine PP],1.6
4,PLEPVY [human PP31-36],> 10000
5,PLEPVYPGDNATPEQMAQYAADLRRYINMLTRPRY [human PP2-36],2.1
6,TPEQMAQYAADLRRYINMLTRPRY [human PP13-36],720
7,SALRHYINLITRQRY (ends and bridges not checked) [porcine NPY22-36],> 1000
8,APLEPMYPGDYATHEQRAQYETQLRRYINTLTRPRY [rat PP],630

# Biological target: T3, rat hypothalamic Y5 receptor
# Assay: 125I-PYY displacement, COS-7 membranes
# Remark: another data set of the same source
# Method: as §2
row,Binder,Ki [nM]
1,ARYYSALRHYINLITRQRY (ends and bridges not checked) [porcine NPY18-36],> 1000
2,DLARYYSALRHYINLITRQRY (ends and bridges not checked) [porcine NPY16-36],260
3,APLEPVYPGDNATPEQMAQYAADLRRYINMLTRPRY [human PP],5
4,APLEPEYPGDNATPEQMAQYAAELRRYINMLTRPRY [bovine PP],8.4
5,PLEPVY [human PP31-36],> 10000
6,TPEQMAQYAADLRRYINMLTRPRY [human PP13-36],290
7,SALRHYINLITRQRY (ends and bridges not checked) [porcine NPY22-36],> 1000
8,APLEPMYPGDYATHEQRAQYETQLRRYINTLTRPRY [rat PP],230

# Biological target: T5, human Y1 receptor
# Assay: 125I-PYY displacement, COS-7 membranes; tested only up to 100 nM
# Remark: another data set of the same source
row,Binder,Ki [nM]
1,TPEQMAQYAADLRRYINMLTRPRY [human PP13-36],> 100

# Biological target: T2, human Y2 receptor
# Assay: as above
# Remark: another data set of the same source
row,Binder,Ki [nM]
1,TPEQMAQYAADLRRYINMLTRPRY [human PP13-36],> 100

# Biological target: T1, human hippocampal Y5 receptor
# Assay: 125I-PYY displacement, COS-7 membranes
# Remark: another data set of the same source
# Method: as §1
row,Binder,Ki [nM]
1,PLEPVYPGDNATPEQMAQYAADLRRYINMLTRPRY [human PP2-36],2.1
2,TPEQMAQYAADLRRYINMLTRPRY [human PP13-36],720
3,APLEPMYPGDYATHEQRAQYETQLRRYINTLTRPRY [rat PP],630

# Biological target: T6, human Y4 receptor
# Assay: 125I-PYY displacement, COS-7 membranes
# Remark: another data set of the same source
# Method: as §1
row,Binder,Ki [nM]
1,TPEQMAQYAADLRRYINMLTRPRY [human PP13-36],39
2,APLEPMYPGDYATHEQRAQYETQLRRYINTLTRPRY [rat PP],0.16

# Biological target: T5, human Y1 receptor
# Assay: 125I-PYY displacement, COS-7 membranes
# Remark: another data set of the same source
# Method: as §1
row,Binder,Ki [nM]
1,HYINLITRQRY (ends and bridges not checked) [porcine NPY26-36],> 1000
2,APLEPMYPGDYATHEQRAQYETQLRRYINTLTRPRY [rat PP],450

# Biological target: T2, human Y2 receptor
# Assay: 125I-PYY displacement, COS-7 membranes
# Remark: another data set of the same source
# Method: as §1
row,Binder,Ki [nM]
1,HYINLITRQRY (ends and bridges not checked) [porcine NPY26-36],380
2,APLEPMYPGDYATHEQRAQYETQLRRYINTLTRPRY [rat PP],> 1000

# Biological target: rat Y4 receptor (rat, UniProt Q63447)
# Assay: 125I-PYY displacement, COS-7 membranes
# Method: (§3) Peptides were tested at concentrations ranging from 0.001 nM to 1000 nM. IC₅₀ values corresponding to 50% displacement were determined by nonlinear regression analysis and converted to Kᵢ values according to the Cheng-Prusoff equation. […] Exception: new peptides (marked with a double asterisk) were tested in one or more independent experiments.
row,Binder,Ki [nM]
1,DLARYYSALRHYINLITRQRY (ends and bridges not checked) [porcine NPY16-36],200
2,APLEPVYPGDNATPEQMAQYAADLRRYINMLTRPRY [human PP],0.04
3,PLEPVY [human PP31-36],26
4,PLEPVY-OH [human PP31-36 free acid],> 100

# Biological target: rat Y1 receptor (rat, UniProt P21555)
# Assay: 125I-PYY displacement, COS-7 membranes
# Method: as §3
row,Binder,Ki [nM]
1,SPEELNRYYASLRHYLNLVTRQRY [human PYY13-36],130
2,PAEDLARYYSALRHYINLITRQRY (ends and bridges not checked) [porcine NPY13-36],190
3,DLARYYSALRHYINLITRQRY (ends and bridges not checked) [porcine NPY16-36],140
4,APLEPEYPGDNATPEQMAQYAAELRRYINMLTRPRY [bovine PP],120
5,PLEPVY [human PP31-36],> 10000
6,HYINLITRQRY (ends and bridges not checked) [porcine NPY26-36],> 1000
7,TPEQMAQYAADLRRYINMLTRPRY [human PP13-36],> 1000
8,FLRF-NH2 [FLRF-amide],45000
9,SALRHYINLITRQRY (ends and bridges not checked) [porcine NPY22-36],> 1000

# Biological target: T4, rat Y2 receptor
# Assay: 125I-PYY displacement, COS-7 membranes
# Method: as §3
row,Binder,Ki [nM]
1,PAEDLARYYSALRHYINLITRQRY (ends and bridges not checked) [porcine NPY13-36],31
2,DLARYYSALRHYINLITRQRY (ends and bridges not checked) [porcine NPY16-36],35
3,APLEPVYPGDNATPEQMAQYAADLRRYINMLTRPRY [human PP],> 1000
4,APLEPEYPGDNATPEQMAQYAAELRRYINMLTRPRY [bovine PP],> 1000
5,PLEPVY [human PP31-36],> 10000
6,TPEQMAQYAADLRRYINMLTRPRY [human PP13-36],> 650
7,SALRHYINLITRQRY (ends and bridges not checked) [porcine NPY22-36],54
8,APLEPMYPGDYATHEQRAQYETQLRRYINTLTRPRY [rat PP],> 1000

# Biological target: T3, rat hypothalamic Y5 receptor
# Assay: 125I-PYY displacement, COS-7 membranes
# Remark: another data set of the same source
# Method: as §3
row,Binder,Ki [nM]
1,ARYYSALRHYINLITRQRY (ends and bridges not checked) [porcine NPY18-36],> 1000
2,DLARYYSALRHYINLITRQRY (ends and bridges not checked) [porcine NPY16-36],260
3,APLEPVYPGDNATPEQMAQYAADLRRYINMLTRPRY [human PP],5
4,APLEPEYPGDNATPEQMAQYAAELRRYINMLTRPRY [bovine PP],8.4
5,PLEPVY [human PP31-36],> 1000
6,YYSALRHYINLITRQRY (ends and bridges not checked) [porcine NPY20-36],> 100
7,PLEPVY-OH [human PP31-36 free acid],> 10000
8,TPEQMAQYAADLRRYINMLTRPRY [human PP13-36],84
9,FLRF-NH2 [FLRF-amide],5500
10,YPSKPDNPGEDAPAEDMARYYSAL-NH2 [human NPY1-24 amide],> 1000
11,SALRHYINLITRQRY (ends and bridges not checked) [porcine NPY22-36],> 1000
12,APLEPMYPGDYATHEQRAQYETQLRRYINTLTRPRY [rat PP],230
